Target: T1, Recombinant human CD44/Fc (R&D Systems, Minneapolis, Minn., USA) (human, UniProt P16070 21-220)
T1 construct: Purchased reagent, amine-coupled to a CM5 chip at about 500 RU; also called rhCD44; recombinant CD44; not shown: Fc part of the purchased fusion
Test: SPR (Biacore T100); rhCD44/Fc amine-coupled to a CM5 chip, antibody injected at 0.67 to 667 nM, 1:1 model

T1 sequence (P16070 21-220): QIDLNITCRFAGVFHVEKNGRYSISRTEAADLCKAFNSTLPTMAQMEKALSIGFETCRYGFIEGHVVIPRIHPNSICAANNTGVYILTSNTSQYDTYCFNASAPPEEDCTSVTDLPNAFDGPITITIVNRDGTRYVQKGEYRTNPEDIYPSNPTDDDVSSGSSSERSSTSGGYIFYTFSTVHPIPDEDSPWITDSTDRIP

B1: H460-16-2 (murine monoclonal antibody produced by the hybridoma deposited with the ATCC as accession number PTA-4621) (antibody, V domains shown)
VH: EVKLLESGGGLVQPGGSLKLSCATSGFDFSRYWMSWVRQAPGKGLEWIGEVNPDSTSINYTPSLKDQFIISRDNAKNTLDLQMSKVSSEDTALYYCTRPNYYGSRYHYYAMDYWGQGTSVTVSS
VL: DIQMTQTTSSLSVSLGDRVTINCRASQDINNYLNWYQQKPDGTVKLLIYYTSRLHSGVPSRFSGSGSGTDFSLTISNLEKEDVATYFCQQGSTLPFTFGSGTKLEIK
Question: With B1 as the binder, how does the Kd read?
Answer: 4.19 nM

B2: (hu)ARH460-16-2 variant HV1/KV1 (antibody, V domains shown)
VH: EVQLVESGGGLVQPGGSLRLSCAASGFDFSRYWMSWVRQAPGKGLVWVGEVNPDSTSINYTPSLKDRFTISRDNAKNTLYLQMNSLRAEDTAVYYCTRPNYYGSRYHYYAMDYWGQGTLVTVSS
VL: DIQMTQSPSSLSASVGDRVTITCRASQDINNYLNWYQQKPGKAPKLLIYYTSRLHSGVPSRFSGSGSGTDFTFTISSLQPEDIATYYCQQGSTLPFTFGQGTKLEIK
notes: Humanized variable regions cloned into pANT18 (human IgG1 constant region, human kappa constant region); also called (hu)ARH460-16-2 variant 1; huARH460-16-2-variant 1
Question: With B2 as the binder, how does the Kd read?
Answer: 6.32 nM

From patent US20080124327A1 (published 2008)
